The source of these data is article PMC6827878 (Cell, 2018).

The experiment deals with Recombinant PP4R3β (His tagged SMEK2) (UniProt Q5MIZ7 1-849). The experiment is described as follows: ITC. (In general: ITC needs no label: the signal is the heat of the interaction.)
Chain of Recombinant PP4R3β (His tagged SMEK2) (Q5MIZ7 whole entry): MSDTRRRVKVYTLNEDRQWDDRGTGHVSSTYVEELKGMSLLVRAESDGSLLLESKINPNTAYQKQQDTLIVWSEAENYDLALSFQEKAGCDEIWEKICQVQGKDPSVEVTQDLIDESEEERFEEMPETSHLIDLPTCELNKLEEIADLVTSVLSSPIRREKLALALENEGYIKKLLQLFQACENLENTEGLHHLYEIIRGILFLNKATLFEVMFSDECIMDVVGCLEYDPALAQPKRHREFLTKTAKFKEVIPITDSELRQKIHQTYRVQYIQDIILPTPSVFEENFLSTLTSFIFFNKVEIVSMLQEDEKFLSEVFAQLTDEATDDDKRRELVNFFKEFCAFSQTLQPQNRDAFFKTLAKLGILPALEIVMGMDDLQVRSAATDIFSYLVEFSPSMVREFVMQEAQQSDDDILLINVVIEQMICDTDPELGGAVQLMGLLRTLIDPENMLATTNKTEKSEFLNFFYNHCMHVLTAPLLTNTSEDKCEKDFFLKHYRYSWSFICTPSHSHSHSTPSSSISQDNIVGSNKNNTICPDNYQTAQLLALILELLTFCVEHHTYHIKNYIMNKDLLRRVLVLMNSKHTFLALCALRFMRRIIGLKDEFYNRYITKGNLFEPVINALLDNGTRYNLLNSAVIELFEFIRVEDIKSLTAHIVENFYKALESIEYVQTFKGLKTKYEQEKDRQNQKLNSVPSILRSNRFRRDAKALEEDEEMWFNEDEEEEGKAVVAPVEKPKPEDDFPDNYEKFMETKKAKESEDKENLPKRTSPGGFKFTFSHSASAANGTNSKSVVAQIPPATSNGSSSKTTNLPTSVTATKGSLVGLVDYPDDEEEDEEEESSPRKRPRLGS

B1: GST-CT45A1 (natural protein, human, UniProt Q5HYN5 1-189, looked up)
chain: MTDKTEKVAVDPETVFKRPRECDSPSYQKRQRMALLARKQGAGDSLIAGSAMSKAKKLMTGHAIPPSQLDSQIDDFTGFSKDRMMQKPGSNAPVGGNVTSSFSGDDLECRETASSPKSQREINADIKRKLVKELRCVGQKYEKIFEMLEGVQGPTAVRKRFFESIIKEAARCMRRDFVKHLKKKLKRMI
Regarding B1, the Kd (usually the free concentration of one partner at which half of the binding sites on the other are occupied at equilibrium, for simple one-to-one binding) was found to be 0.37 ± 0.03 µM.
